Data taken from PMC4890791.

How the values were obtained:
Assay in all cases: EMSA
Settings in all cases: EMSA: 10 mM NaCl, 0.1 mM DTT, 0.1 mM EDTA, 10 mM Tris pH 7.4, 25 C 30 min (22-42 C series in Fig 5C), 20 ng Cy5 probe, poly(dI:dC); footprinting: 400 ng FAM …
[1] = target: T1, RpoE (sigma E) (Vibrio alginolyticus (EPGS)) (UniProt A0A0H0YA85)
T1 sequence: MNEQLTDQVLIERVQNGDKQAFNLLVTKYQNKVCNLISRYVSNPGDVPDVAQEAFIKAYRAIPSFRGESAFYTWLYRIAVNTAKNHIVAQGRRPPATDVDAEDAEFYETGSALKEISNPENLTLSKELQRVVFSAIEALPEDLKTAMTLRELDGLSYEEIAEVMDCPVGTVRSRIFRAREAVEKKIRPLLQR

[2] = tested on: T2, AphA (Vibrio alginolyticus (EPGS)), ORF:ebbe691c
T2 sequence: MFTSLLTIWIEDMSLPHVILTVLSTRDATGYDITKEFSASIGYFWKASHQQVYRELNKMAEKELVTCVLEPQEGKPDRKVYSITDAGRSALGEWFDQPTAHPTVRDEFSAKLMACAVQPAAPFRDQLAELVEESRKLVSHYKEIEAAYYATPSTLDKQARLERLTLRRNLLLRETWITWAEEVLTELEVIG

[3] = tested on: RpoE (sigma E) (Vibrio alginolyticus (EPGS))

Substance | Kd [1] | binding [1] | binding [2] | Kd [3]
AAGATGCTCGCTTGTCAAACTTAGACTAAAGTCAGGCAGCGGTGGTCATTTGGGTACAGACATCACACTGTGAAAAAACAATGACAAAAAACTTGAGAAACCATGGAACTTTCTCATTCACGTTAGGGTCACAATAGTGCTCAAGTAAGCAGTGGTGTCAATACTACGTTTTGCATAATTAGTACCCATATCTGAGAAGAGTAGGGGCATAACAAATAGGAGTATCCGCTCGAATG (double strand) [PrpoE] | 0.076 µM | binds | – | –
AGTCGCACGCAAACGATCACCTAATCTTACGGCGTGTAGTGTATCACCACGTTCATTGGGTTGAAAGTCGCATCCTGTTGCCAAAAAATCTTGGAAGAAGGTCTTAGTTTTATAAAGTTCATAGCTAAATTTATCAATAATAATGACATTACTGTATATAAATTGTTCTACAGATGTTGACCTTGTGCATATGCACCATTACACTCATCACTGCTTTAAGCAACTATTAAAATAATCAATTAGGGGGTTACCCCCAATATCAACTCAAATGGCAAGGAAAATGGAT (double strand) [PluxR] | 0.083 µM | binds | binds | –
PluxR | – | – | – | 0.083 µM
PrpoE | – | – | – | 0.076 µM
PrpoH | – | – | – | 0.075 µM
